From the DeepSol protein solubility set

Experiment: soluble on expression in E. coli; label from the status in PepcDB or PDB records

Soluble on expression in E. coli, not soluble:
MGSDKIHHHHHHMAHENVIEMRDITKVFGGFVANDKINLHLRKGEIHALLGENGAGKSTLMNMLAGLLEPTSGEIAVNGQVVNLDSPSKAASLGIGMVHQHFMLVEAFTVAENIILGSELTKNGVLDIAGASKEIKALSERYGLAVDPSAKVADISVGAQQRVEILKTLYRGADILIFDEPTAVLTPSEIDELMAIMKNLVKEGKSIILITHKLDEIRAVSDRVTVIRRGKSIETVEIAGATNADLAEMMVGRSVSFKTEKQASKPKEVVLSIKDLVVNENRGVPAVKNLSLDVRAGEIVGIAGIDGNGQSELIQAITGLRKVESGSIELKGDSIVGLHPRQITELSVGHVPEDRHRDGLILEMMISENIALQTYYKEPHSKNGILNYSNITSYAKKLMEEFDVRAASELVPAAALSGGNQQKAIIAREIDRDPDLLIVSQPTRGLDVGAIEYIHKRLIEERDNGKAVLVVSFELDEILNVSDRIAVIHDGKIQGIVSPETTNKQELGVLMAGGNLGKEKSDV, MGSDKIHHHHHHMAITIQFSNYALKTDETLIQRIQFVYSPLNELFRSLHVLLNPRHHGTNIDWVIRIQNKLTKEFYENLHYFRLFYELGVSPILLCNFRYHATTIEEEIQNLKKFLDELSTAQLIEHLEKVTSDRENSFIPTLARGLEWKDFSLNKDNQLLSDLRKDASSVYQHLFSFVDWYRQEIFDETWESKDIQRKLLTEIQHQASFLKESGFKAMFNHLQIDRIHWRKDRLVIIKPFDKDIQLKDSDSIMLLPSYFIWPHLFVESFNQGIAVTYDITEQPSYYNATPENLITIFKALSDPVRLQIMNYVIDKPSTTQSLAQILVMSNSSVSRHLQILKEANLLTTTKAKKFVLYEPTQLITQLMPNFYHFFKN, MGSDKIHHHHHHMAKFDNHPTVRWWREQSTNNPKTSTVALNSDSLRTLCLDAGADDVGFVEIYRPAIADQHAEILAVFPPTKTLISFVCCMNRESVRTPARSIANLEFHANYDHADEVARNLVKAFAQIGVRALNPSVAFPMEMDRYPDKKAWIISHKPVAVEAGLGHIGIHRNVIHPKFGNFIALGTVLIDTEVTEYAHPINYNPCIECKLCVAACPVGAIGADGSFSFSACYTHNYREFMGGFTDWTETIADSKSASDYRKKVSASESASMWQSLSFKPNYKAAYCIAACPAGEDVIAPFLSDRKAFIKDVVKPLQDKTETIYVVPGSDAENYVVKHFPNKTVKLVSSGIRPQSIQGFLFGLPLLFQRNQSEGLSAIYHFTFTGSESRRATVTIQNKMVRVQEGHLGKANISVTADSKTWLGFLGKEQNLIWALLRCKIRVSGSLKLLQAFGKCFPTCNIH, MGSDKIHHHHHHMAKQKDGFLGEQALVLPPAIVQRMKTDPATSILYITDIGYYPKAYNHFRERETPIDQYVFIYCTEGRGWFSLDGQKHPVVPNQYFILPAGLPHAYGADEKEPWTIYWIHFGGTLAPLYCTHRTCRLTDIKPGMHSRISYRTELFEEIFRVLKMGYSLENLSYASSVFHHYLGSLRYLREYREAFSEHRPAGEEDPVNAAIHYMKENLGKKLTLAELADYTGYSSSYFSNLFLKRTGYAPLSYFNQIKIQKACQFLDFTDMKVNQVCYRVGIEDAYYFSRLFSQIMGMSPREYKKVKKG, MGSDKIHHHHHHMALAKLPQLESVFLTDAGLETDFIFNRGIDLPYFASITLLQSSDGKIALEEYFRGFLELARRMRCGLILESATWRASPDWAEPLGLSQQELDTLNTSAIAILRDLRDEFGSTMPAVVISGCLGPRGDGYDPGKIMSEEGAEAYHRHQAEVLASAGVDQLTAITMTNVPEAIGIAKAAKSLAVPVAISFTVETDGRLPTGDRLSDALRAVDQATASTPAYYMINCAHPSHFAAVLEDGADWVNRIGGLRANASRCSHAEVDAMSELDRGNPEELAALHSELRLRFPHINVLGGCCGTDLDHITAIAEACL, MGSDKIHHHHHHMALLDIRNLCIEIETPKGRVKIIDNVNLTLNEGEICGLVGESGSGKSLIAKVICNAIKDSWIITADRFRFDDVELLKLNPKKRRKLVGKEISMIYQEPLASLDPSRKIGQQLIQSIPSWTFKGRWWQWFGWKKRRAIELLHRVGVKDHKDIMQSYPHEVTEGEGQKIMIALAIANQPRLLIADEPTNSLESMTKVQIFRLLASMNQNQGTSILLVSNDINSISAWCDSFSVLYCGQNAESGSKENILENPHHPYTRALLHSIPDFKQPLVHKSRLSTLKGAVPLLEGMPIGCRLGPRCPFAQKECIRKPTAQRIKQHEFFCHFPINLKESQRREKEMETGPLVVNTTK, MGSDKIHHHHHHMALPSLNGMRAFEAAARLGSIKDAAEELHLTPSAISRHIRALERNLGQDLFERGFRQITPTIRGSYYARSLSEAFEAIWRATDDVSLADGPSHGRTQRVRVLCVPAVLNLWLADRLPNFRRLHPAVELEISTSGKRANFDLAIVDEFVYKAGPALTLLIPLVLTPVCAPSLLDGPVPLRSPADLVNHHLIHECESMRWKRWLEQEGVLDTTPKSSTTLDDCTLIMREAINGAGIALADTMMAQDFLQQGKLVAPFPARHTYPAGIYLHQRRSIGNKPGTGLFQDWLLSEVEDHKRVMAIA, MGSDKIHHHHHHMANEATQELFQVLDNTAIILQNELEISYLEAVYETGENLFQKEVLQKEELSSEKQLKLQESYESIELENFSNEEIRKGLQLALLKGMKHGIQVNHQMTPDSIGFIVAYLLEKVIQKKKNISILDPACGTANLLTTVINQLELKGDVDVHASGVDVDDLLISLALVGADLQRQKMTLLHQDGLANLLVDPVDVVISDLPVGYYPDDENAKTFELCREEGHSFAHFLFIEQGMRYTKPGGYLFFLVPDAMFGTSDFAKVDKFIKKNGHIEGIIKLPETLFKSEQARKSILILRKADVNVKPPKEVLLANLSSLTDPSVTAPILAEIENWFKSKQ, MGSDKIHHHHHHMANSGQIRVGIGGWNFEPWEGTFYPDDLPKKRQLEFAGKELRTIEVNGTYYSSQKPATFAKWAAEVPDGFIFSLKASRFVTNRRVLSEAGESMERFLTQGLTELGDRLGPILWQFAPTKKFDAEDFEGFLKLLPEKQDGLKLRHVVEVRNPSFQVPDFVKLIEKYKVAVVLAEHADYPMIADVTGDFVYARLQKGSDEVKTCYPPKDLDRWAERLKTFAAGGEPDDLEKAAPERQPETAPRDVFAFFITSGKVNAPNGARELQKRVG, MGSDKIHHHHHHMARANRHYIPGQVWHITHRCHKKEFLLKFARDRRRWLHWLFEAKKRFGLQVLNYAVTSNHVHLLVVDTKPEVVAKSIQLIAGRTAQEFNQRKDRKGAFWEDRYHATAIERNEHLVRCLVYIDLNMVRAGVVTHPAEWEMNGYNEIQNPPDRYAIIDRHSLFDACGFPDYGSFAEQHRKWVEDALKKGMNREGHWTESIAVGSSAFITDTQRKMGCSAKGRKLEEQVDGASFLREDAEPYHAHFTGKSEVLSPENAFFWDDYDVVPVG, MGSDKIHHHHHHMARQFVYFMQGLTKAYPTRKVLDNVHLSFYPDAKIGVLGVNGAGKSTLLKIMAGIDKEYTGEAWVAEGARVGYLEQEPQLDPALTVRENVMLGVAKQKAILDRYNELAMNYSEETADEMTALQDQIESAGLWDLDSKVDQAMDALRCPPDDADVTKLSGGERRRVALCKLLLDQPDLLLLDEPTNHLDAESVSWLESHLRNYPGAILIVTHDRYFLDNVTSWILELDRGRGIPYEGNYSSWLVQKQKRLLQEGREDAAHQKTLEREQEWIASSPKARQAKSKARYQRYEELLAKASEKQTQTAQIIIPVAERLGNNVVDFEHLTKGFGDKLLIDDLTFKLPPGGIVGVIGPNGAGKTTLFRMITGQEKPDQGTITVGETVHLGYVDQSRDSLDAKKTVWEEISGGNELILLGKKEVNSRGYCSAFNFKGGDQQKKVGSLSGGERNRVHLAKMLKSGANVLLLDEPTNDLDVDTLRALEEALEDFAGCAVIISHDRWFLDRIATHILAFEDDSHVEWFEGNFQDYEKDKMRRLGQDAIIPHRAKYKKLTR, MGSDKIHHHHHHMARYSKKMKLLINTPSLKFLGGGVANHYIGLRTFWTENVKYNVVGRRGGKSGSGKYWLPWDIFKFIFRLLTFRPNIILLNPSLGDKALKRDFIYLNICRFFRKKTSVFIHGFNFEYAKNADWKWISTNLNKALCIFVLSQEFKNELIRRGVKSDIHLTSTKVPDYFISGFDLSMRQGKAKNIMYSGRIEKAKGVYETVDTFSILKSQYKDLTLTFVGDGSELPKLKQYVENKKIKDVRFTGRLCGEDFKKEYINADMYLFLSYTEGMPTVVLEAMIFGLPIFTRKVGGLIDFFENGKMGYISSSLDPVVFAEAMKPYIESSAKMKSVSLYNSEYARTHFIASVVARKFENTLNYEYFKNQEHREH, MGSDKIHHHHHHMASHLTDGVIHATTRAASLHWCIAQATKTDGALNGDGYLLKRDEDTLLFALADGVGSGQLAHDASSACLRILAASDDMDLPSLFETCHTQLTSTRGAALGLVKFFLGQGFLEWAAVGDIEGCIYPTEPTSSRTISMMQRGGTLGHYFTGITPQQHAWPPTSMLALCTDGVSRKFRERHPNDQAPREFADSCFNDFGRDNDDRTLATFSWTQEGT, MGSDKIHHHHHHMASKNFVLDTNVLIENPRCIAALRNGEENRIHVPWTVLAELDGLQRDPRIGHVVGQAINALVGDEAVTFLPPLADDVAPSPGTIGDDRILGEIASSALESPILITNDRILQLKARVRGIPVEGYRDSVPFQSESQRYTGFVMDGEDPVPNCFRWENGQPVFHGPDGPRAVTWQHEVWKVAPRSVHQNLAFELMLHPGIDIVSIQSEAGYGKTFLALAAALHLVFERKDTPYRKIYLVKPVVEIGARMGFLPGDIEEKMHPYIRYVQDLLLKLHDLRPANRVFQSVEAGNMKLNPKRFEIQPIAYVRGMNLENAVVIIDEMQNLSRNEARALLTRMGEGVKCFCLGDTRQVDNQYLNESNNGLNWVVKKLKGFRNYAHIVLKGERSRGPITDIVLRSRL, MGSDKIHHHHHHMASVMSNNNNNNNNNNASYMFTNPLSNTGGGLINEIKDAINEMEQLKVLELKQICKSLDLSITGKKAVLQDRIKQFLRKSCDIGHIDPWRPKAIKILIAKVRINSSLPKYSTLWETLKTGAFKHPVASGQLPVTALQSTALPPYSQQQALAYSFTSPFYKPIVQIPDANKKLKQSAGRGCTKMKFKVSKSNHDLLKSNKSYKLYLFSGFSIPFIYETVGHEAIDFPYPCELVFNGTKLEDNVKGLKKQNGTGNPANLTPYLKVPTEMNHLDLHYLNIDKEYSISCFIVEVFSPEALLGKILKRPKIIKQATTAYIKRTLNEQDDDDIITTSTVLSLQCPISCTRMKYPAKTDQCKHIQCFDALWFLHSQSQVPTWQCPICQHPIKFDQLKISEFVDNIIQNCNEDVEQVEISVDGSWKPIHNSSAVITDTVNQNHSVKNENQGTVKQEQDYDSRNAFDTNLRNGSNHNEPEIISLDSSDDEAFIPASKSFPTHVNPRNDQLRADIFPSESEGSSDYNPNHTSTPKGSPTMDQDNYQDAFQMRSFLNQGATTNINDTPTNNSSINSFVTATNGDSRIFYNRGPSTPLLPAVLQNLTNQTEAQRNPYGPNYNTTAQDRNLLGIEGDLPPIPPVDPNSEAETELPTRTTSAAHLPPYIHVSTSGHGDDGKIRKRRHSNVSIYIPKNPYATLMKRRPQANHAIMNKTLAQTNDFNTSAQDNSEVVDLTSD, MGSDKIHHHHHHMATMMMNDMAARGLRVGLLTWDPEDATAHYPMDPAITWMKLAMGEASQRAGWGLRLRRQRAIRRLARGFRPDVVIGFQAGAFIALRTALVGLGIPMIAAERNAPDLYDFLRQGVRARRMTELALATASRITVQLPSYRPRYPAFLRRRIVDIPNPVPALAEPPYPNEAADPPRLILNMGRLSYQKNQAFLLRAFARVAPTHPEWTLAFVGDGDAGATLKALCHELDLDDRVLFPGATRDVGAWYARSAFLAFPSLWEGFPNALVEAFAHGLPAVGLRTTSGVNELIVEGETGLLSAPDEGAFAEALARMIRDDEARREMGRKAARSILAYDPKAIFDRWEALFRAVAKRRSAP
